Data taken from article PMC2377097.

Molecular target: Unc45b^Flag, bacteria expressed and purified (mouse) (UniProt Q8CGY6)
Assay: pull-down; apparent; skeletal MD::GFP synthesized in the coupled assay, incubated with 0-2000 nM Unc45b^Flag 1 hr at 25°C, then anti-Flag beads 1 hr at 25°C; silver stain and autoradiography

Unc45b^Flag, bacteria expressed and purified (mouse), sequence (Q8CGY6 whole entry): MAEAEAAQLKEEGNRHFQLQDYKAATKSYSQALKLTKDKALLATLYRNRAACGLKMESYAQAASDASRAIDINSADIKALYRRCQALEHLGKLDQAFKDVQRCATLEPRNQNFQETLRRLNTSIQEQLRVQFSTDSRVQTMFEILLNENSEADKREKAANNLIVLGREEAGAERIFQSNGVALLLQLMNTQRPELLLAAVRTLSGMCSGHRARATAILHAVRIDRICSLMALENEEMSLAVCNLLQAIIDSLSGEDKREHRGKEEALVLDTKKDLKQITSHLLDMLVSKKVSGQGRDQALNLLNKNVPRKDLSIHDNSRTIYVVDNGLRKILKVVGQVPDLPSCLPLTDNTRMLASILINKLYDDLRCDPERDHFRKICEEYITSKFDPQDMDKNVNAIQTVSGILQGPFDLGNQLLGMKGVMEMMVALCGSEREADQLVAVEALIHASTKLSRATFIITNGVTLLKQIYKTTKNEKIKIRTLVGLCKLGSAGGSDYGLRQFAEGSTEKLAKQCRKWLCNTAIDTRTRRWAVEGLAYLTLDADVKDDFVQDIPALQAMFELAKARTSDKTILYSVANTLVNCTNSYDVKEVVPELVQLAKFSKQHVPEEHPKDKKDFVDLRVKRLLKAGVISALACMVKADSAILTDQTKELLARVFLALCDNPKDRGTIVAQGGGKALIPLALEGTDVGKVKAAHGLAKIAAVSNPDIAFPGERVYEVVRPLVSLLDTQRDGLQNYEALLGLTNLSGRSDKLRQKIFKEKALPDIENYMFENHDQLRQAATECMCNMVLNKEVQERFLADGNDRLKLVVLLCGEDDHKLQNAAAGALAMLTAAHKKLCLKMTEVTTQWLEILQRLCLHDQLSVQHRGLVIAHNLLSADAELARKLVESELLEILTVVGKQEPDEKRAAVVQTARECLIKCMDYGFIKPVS

“skeletal muscle MD::GFP chimera (Sk795GFP) (domain or fragment)” gave a Kd of 510 nM.
